Measurements as given in article PMC6497562 (Molecular cancer research : MCR, 2019).

Target: neurofibromin (human (endogenous in 786-0 and RCC4), UniProt P21359-2 1-2818)
Experiment: co-IP

fold increase of binding in hypoxia over normoxia: ~2 fold
B1: hypoxia-associated factor (HAF), endogenous (natural protein, human (endogenous in 786-0), UniProt O43290 1-800, looked up)
chain: MGSSKKHRGEKEAAGTTAAAGTGGATEQPPRHREHKKHKHRSGGSGGSGGERRKRSRERGGERGSGRRGAEAEARSSTHGRERSQAEPSERRVKREKRDDGYEAAASSKTSSGDASSLSIEETNKLRAKLGLKPLEVNAIKKEAGTKEEPVTADVINPMALRQREELREKLAAAKEKRLLNQKLGKIKTLGEDDPWLDDTAAWIERSRQLQKEKDLAEKRAKLLEEMDQEFGVSTLVEEEFGQRRQDLYSARDLQGLTVEHAIDSFREGETMILTLKDKGVLQEEEDVLVNVNLVDKERAEKNVELRKKKPDYLPYAEDESVDDLAQQKPRSILSKYDEELEGERPHSFRLEQGGTADGLRERELEEIRAKLRLQAQSLSTVGPRLASEYLTPEEMVTFKKTKRRVKKIRKKEKEVVVRADDLLPLGDQTQDGDFGSRLRGRGRRRVSEVEEEKEPVPQPLPSDDTRVENMDISDEEEGGAPPPGSPQVLEEDEAELELQKQLEKGRRLRQLQQLQQLRDSGEKVVEIVKKLESRQRGWEEDEDPERKGAIVFNATSEFCRTLGEIPTYGLAGNREEQEELMDFERDEERSANGGSESDGEENIGWSTVNLDEEKQQQDFSASSTTILDEEPIVNRGLAAALLLCQNKGLLETTVQKVARVKAPNKSLPSAVYCIEDKMAIDDKYSRREEYRGFTQDFKEKDGYKPDVKIEYVDETGRKLTPKEAFRQLSHRFHGKGSGKMKTERRMKKLDEEALLKKMSSSDTPLGTVALLQEKQKAQKTPYIVLSGSGKSMNANTITK
